Assays:
[1] = molecular target: recombinant gain-of-function GPIbα protein fragment (amino acids 1-285 with amino acid substitutions G233V and M239V) (human) (UniProt P07359); assay: latex particle agglutination (turbidimetry, 570 nm); inhibition of VWF-GPIbα complex formation by 20 µg/ml AK2 in normal plasma pool
[2] = molecular target: recombinant gain-of-function GPIbα protein fragment (amino acids 1-285 with amino acid substitutions G233V and M239V) (human) (UniProt P07359); assay: latex particle agglutination (turbidimetry, 570 nm); inhibition of VWF-GPIbα complex formation by 10 µg/ml AK2 in normal plasma pool
[3] = molecular target: T1, von Willebrand factor (VWF) in plasma (human, UniProt P04275 764-2813); assay: latex particle agglutination, turbidimetry at 570 nm
T1 construct: mature; Native multimeric VWF present in plasma, not purified; The number of monomers per multimer varies; also called VWF protein
Procedure: The sample used was human citrated plasma from six different donors. 60 μl of sample were mixed with 20 μl of plasma containing VWF (91% of norm VWF, control plasma N, Siemens Healthcare Diagnostics Products GmbH, Marburg, Germany), 13 μl of a solution containing a recombinant gain-of-function GPIbα protein fragment (amino acids 1-285 with amino acid substitutions G233V and M239V; 8.4 μg/ml) and 70 μl of an NaCl buffer and incubated for two minutes. Subsequently, 40 μl of a latex particle reagent containing latex particles coated with anti-GPIbα antibodies were added to the assay mix.
Absorbance at 570 nm of the reaction mixture was measured turbidimetrically. Binding of VWF to GPIbα and binding of the GPIbα protein to the latex particles result in particle agglutination. This agglutination leads to an increase in absorbance, the maximum rate of which is determined (mU/min).

Rate of agglutination [1] [mU/min] | Rate of agglutination [2] [mU/min] | binding result [3] | Molecule
133 | 266 | – | anti-GPIb antibody AK2
– | – | binds | recombinant gain-of-function GPIbα protein fragment (amino acids 1-285 with amino acid substitutions G233V and M239V) (receptor) HPICEVSKVASHLEVNCDKRNLTALPPDLPKDTTILHLSENLLYTFSLATLMPYTRLTQLNLDRCELTKLQVDGTLPVLGTLDLSHNQLQSLPLLGQTLPALTVLDVSFNRLTSLPLGALRGLGELQELYLKGNELKTLPPGLLTPTPKLEKLSLANNNLTELPAGLLNGLENLDTLLLQENSLYTIPKGFFGSHLLPFAFLHGNPWLCNCEILYFRRWLQDNAENVYVWKQVVDVKAVTSNVASVQCDNSDKFPVYKYPGKGCPTLGDEGDTDLYDYYPEEDTE

Source: patent US20130230868A1 (SIEMENS HEALTHCARE DIAGNOSTICS, published 2013)
